Test results: article PMC2903362 (The Journal of Biological Chemistry, 2010)

T1: FlK (fluoroacetyl-CoA thioesterase; WtFlK) (Streptantibioticus cattleyicolor, UniProt Q1EMV2)
T1 sequence (Q1EMV2 1-139): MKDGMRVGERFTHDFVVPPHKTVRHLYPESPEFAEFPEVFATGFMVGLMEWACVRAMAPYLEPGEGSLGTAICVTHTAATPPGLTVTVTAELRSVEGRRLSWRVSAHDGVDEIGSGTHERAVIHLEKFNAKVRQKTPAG

B1: wild-type FlK (fluoroacetyl-CoA thioesterase FlK) (enzyme, Streptomyces cattleya)
chain: MKDGMRVGERFTHDFVVPPHKTVRHLYPESPEFAEFPEVFATGFMVGLMEWACVRAMAPYLEPGEGSLGTAICVTHTAATPPGLTVTVTAELRSVEGRRLSWRVSAHDGVDEIGSGTHERAVIHLEKFNAKVRQKTPAG
B2: FlK T42S mutant (enzyme, Streptomyces cattleya)
chain: MKDGMRVGERFTHDFVVPPHKTVRHLYPESPEFAEFPEVFASGFMVGLMEWACVRAMAPYLEPGEGSLGTAICVTHTAATPPGLTVTVTAELRSVEGRRLSWRVSAHDGVDEIGSGTHERAVIHLEKFNAKVRQKTPAG
B3: selenomethionine-labelled wild-type FlK (enzyme, Streptomyces cattleya)
chain: MKDGMRVGERFTHDFVVPPHKTVRHLYPESPEFAEFPEVFATGFMVGLMEWACVRAMAPYLEPGEGSLGTAICVTHTAATPPGLTVTVTAELRSVEGRRLSWRVSAHDGVDEIGSGTHERAVIHLEKFNAKVRQKTPAG
modifications: L-selenomethionine incorporated
B4: FlK T42A mutant (enzyme, Streptomyces cattleya)
chain: MKDGMRVGERFTHDFVVPPHKTVRHLYPESPEFAEFPEVFAAGFMVGLMEWACVRAMAPYLEPGEGSLGTAICVTHTAATPPGLTVTVTAELRSVEGRRLSWRVSAHDGVDEIGSGTHERAVIHLEKFNAKVRQKTPAG
B5: FlK E50A mutant (enzyme, Streptomyces cattleya)
chain: MKDGMRVGERFTHDFVVPPHKTVRHLYPESPEFAEFPEVFATGFMVGLMAWACVRAMAPYLEPGEGSLGTAICVTHTAATPPGLTVTVTAELRSVEGRRLSWRVSAHDGVDEIGSGTHERAVIHLEKFNAKVRQKTPAG

How the values were obtained:
[1] = target: T1, FlK (fluoroacetyl-CoA thioesterase; WtFlK); experiment: X-ray crystal structure of complex; assay type: binding; conditions: 10 mM FAcCPan, 100 mM CHES pH 9.5, 0.8 M trisodium citrate; active site
SEC = target: the molecule itself; experiment: SEC
crystal structure [2] = target: the molecule itself; experiment: crystal structure
crystal structure [3] = target: the molecule itself; experiment: crystal structure; remark: listed apart in the source

Molecule	X-ray crystal structure of complex [1]	stoichiometry N (SEC)	stoichiometry N (crystal structure [2])	stoichiometry N (crystal structure [3])
CC(C)(CO)[C@@H](O)C(=O)NCCC(=O)NCCCC(=O)CF [FAcCPan]	WtFlK in complex with two analogues of fluoroacetyl-pantetheine, FAcCPan, and FAcOPan	–	–	–
B1	–	2	4	–
B2	–	2	–	4
B3	–	–	–	2
B4	–	2	–	4
B5	–	2	–	–
